The series addresses T1, NmtR wild-type (Mycobacterium tuberculosis, UniProt O69711 2-120).
T1 sequence: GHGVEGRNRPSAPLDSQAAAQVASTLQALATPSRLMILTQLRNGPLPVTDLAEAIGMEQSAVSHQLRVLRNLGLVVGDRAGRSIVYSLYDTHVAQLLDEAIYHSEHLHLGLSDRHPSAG
Put plainly: fluorescence anisotropy.

Data on one molecule can be found in PMC3225088.

B1: nmt operator 30 bp (dsDNA)
DNA 1: GAAATAAATGAACATATGATCATATATTCT
DNA 2: AGAATATATGATCATATGTTCATTTATTTC
For the molecule B1, the Ka was 2.86e+10 M⁻¹.
